Experimental findings from paper PMC5577389 are described below.

This experiment concerns the target 6xHis-FN1, the first fibronectin type III repeat (FN1) of the neural cell adhesion molecule NCAM. Description: ITC.

As for “6xHis-SUMO-PBR, ST8Sia-IV polybasic region peptide (residues 75-100) fused to an N-terminal 6xHis-SUMO tag (from UniProt Q92187 75-100)”, the dissociation constant Kd – broadly, the concentration at which binding is half-saturated – is 10.9 µM; the dH amounted to 0.991 kcal/mol; the stoichiometry N (in general, the number of molecules, sites or subunits per partner or assembly) was found to be 1.06.
